Numbering of substitutions follows the chain as printed. “Also recorded” adds a separate entry of the source. Blank lines part the entries; values can stand above or below the molecule they belong to.
Assays:
[1] = system: chick chorioallantoic membrane blood vessels; experiment: Proliferation of blood vessels on chick chorioallantoic membrane; assay type: in vivo
Protocol: In this example, a proliferation assay on chick chorioallantoic membrane blood vessels was carried out to detect the inhibition of F56 to angiogenesis.
The experiment was carried out according to a method described by Fu Shengfa et al. (Fu Shengfa, Lu Yinglin and Zhang Chaoshan: Technique of detecting the effects of vascular growth factor with chorioallantoic membrane of fertilized chicken eggs. Chin Mili. Acad. Medi. Scie. 1993, 17:294-97”). Particularly, fresh inseminated chicken eggs were soaked in 0.1% benzalkonium bromide solution for 2 minutes at 38° C., and incubated in an incubator at 37.5° C., 60-70% humidity for 3 days. Then, the eggs were stripped and cultured on a petri dish. When the allantoic membrane grew to about 1cm^2, the different groups (5 chick embryos per group) were treated with the following agents. VEGF165 (2 μg/L), DHFR (negative control) or 18 μl F56 solution (0.8 μg/μl) was dropped onto a glass-fiber filter membrane (Φ5 mm). The membrane was placed on the distal end (in relation to the heart of the embryo) of the chorioallantoic membrane. The agents were administered once in the morning and once in the evening for 2 days. The results were observed and recorded by photography. The experiment was repeated twice (Kodak 100, exposed for 3 s).

[2] = system: human umbilical cord vein-derived endothelial cells (HUVECs); experiment: VEGF-stimulated proliferation of HUVECs (3H-TdR incorporation); assay type: cell-based; conditions: 50, 100, 200, 300 μmol/L with VEGF165, 48 hours; FIG. 2
Protocol: A sample of human umbilical cord (obtained from Beijing Gynecological and Obstetric Hospital) was digested by 0.1% collagenase II (purchased from GIBCO BRL Corporation), and centrifuged at 1000 rpm for 10 minutes to collect the human umbilical cord vein-derived endothelial cells (HUVECs). The cells were suspended in 20% FCS/RPMI 1640 (purchased from GIBCO BRL Corporation), and transferred to a plastic culture flask and cultured in a incubator (37° C., 5% CO2) for 2 days. Then, the cultured HUVECs were digested with 0.04% trypsin-EDTA, and inoculated into a 24-well plate at 3×10^4 cells/well. After 24 hours' incubation, the cells were incubated for another 24 hours in new medium 2% FCS/RPIM 1640. VEGF165 (product of Sigma Corporation) was added either independently or as a mixture with peptide F56 or F90 of different concentrations (50, 100, 200, 300 μmol/L). 4 parallel wells were used for each group. The cells were incubated for 48 hours. Then, ^3H-TdR(1 μci/ml) was added and the cells were incubated for another 8 hours. The cells were collected to a glass-fiber filter membrane. The cpm value was detected according to conventional methods. The same experiment was repeated for 3 times.

[3] = system: human breast cancer cells; experiment: Metastasis model of breast cancer in SCID mice; assay type: in vivo
Protocol: In order to observe the inhibitory activity of the peptides of the present invention to cancer metastasis, a metastasis model of breast cancer in SCID mice as described by Li Zhihong at al. (Transplant of human breast cancer in nude mice. Natl. Med J Chin. Vol.80 (11), 2000) was used to determine the function of F56. Briefly, human breast cancer cells were inoculated under the fat pad in the breast of SCID mice. Peptide F56 (0.5 mmol/L) was injected topically (60 μl per mouse per time) on the next day and every other day for 10 times in total. After 8 weeks, the mice were put to dead. The tumors were taken out and weighted. The whole lung was taken out, fixed and sliced with maximal cross-section and dyed by HE. The number of metastatic foci was counted.

sFlt-1 = target: T1, sFlt-1 (Homo sapiens, UniProt P17948); experiment: ELISA test of binding specificity to soluble receptor sFlt-1; conditions: for binding to Flt-1 (in words): ELISA; for ELISA (OD492 nm), SFlt-1: plate coated with sFlt-1 5 mg/L, detection with DHFR-specific monoclonal antibody
T1 construct: made in house
T1 sequence (P17948 27-758 limits assumed, species assumed): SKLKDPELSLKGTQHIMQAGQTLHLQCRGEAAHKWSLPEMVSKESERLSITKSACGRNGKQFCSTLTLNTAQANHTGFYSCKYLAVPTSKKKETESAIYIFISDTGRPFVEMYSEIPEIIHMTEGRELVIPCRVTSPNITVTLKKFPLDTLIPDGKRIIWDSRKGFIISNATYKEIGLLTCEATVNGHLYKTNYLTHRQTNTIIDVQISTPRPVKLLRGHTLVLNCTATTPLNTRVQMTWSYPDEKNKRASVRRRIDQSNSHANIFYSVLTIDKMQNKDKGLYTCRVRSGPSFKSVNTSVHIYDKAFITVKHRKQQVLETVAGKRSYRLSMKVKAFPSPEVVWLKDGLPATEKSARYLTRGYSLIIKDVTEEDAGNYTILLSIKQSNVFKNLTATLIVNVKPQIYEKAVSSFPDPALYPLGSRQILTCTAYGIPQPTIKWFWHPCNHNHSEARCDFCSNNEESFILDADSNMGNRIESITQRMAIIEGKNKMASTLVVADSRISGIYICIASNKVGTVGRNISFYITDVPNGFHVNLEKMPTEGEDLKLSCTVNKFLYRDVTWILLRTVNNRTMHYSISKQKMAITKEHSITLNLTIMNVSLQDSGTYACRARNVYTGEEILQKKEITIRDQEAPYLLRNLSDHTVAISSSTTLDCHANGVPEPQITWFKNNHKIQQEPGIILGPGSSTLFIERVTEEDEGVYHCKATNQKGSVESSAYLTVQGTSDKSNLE
Protocol: (§1) The specificity of the binding of the fusion proteins DHFR-F56 and DHFR-F90 to receptor Flt-1 was tested by ELISA in the present example.
(§2) Particularly, a 96-well plate was coated with soluble receptors, sFlt-1, sKDR (5 mg/L, 50 μl/well) [Song Shumei, Shou Chengchao: Molecular cloning and its expression of vascular endothelia growth factor receptor KDR. Chin J. Biochem. Mol. Bio. 1998, 14 (1): 57-61; An Ping, Dong Zhewei and Shou Chengchao: Molecular cloning and its bio-activity of soluble VEGF receptor expressed in bacterial. Chin J. Biochem. Mol. Bio. 2000, 16 (1): 62-66]. Alternatively, the vascular endothelial cells in a 96-well plate were fixed by pre-cooled 0.125% glutaraldehyde solution. DHFR, DHFR-F56 or DHFR-F90 was added to the plate after blocking. An ELISA assay was carried out using a DHFR-specific monoclonal antibody according to conventional method. The ELISA assay was repeated for 3 times.

sKDR = target: T2, sKDR (Homo sapiens, UniProt P35968); experiment: ELISA test of binding specificity to soluble receptor sKDR; conditions: for reaction with KDR (in words): ELISA; for ELISA (OD492 nm), SKDR: plate coated with sKDR 5 mg/L, detection with DHFR-specific monoclonal antibody
T2 construct: made in house
T2 sequence (P35968 20-764 limits assumed): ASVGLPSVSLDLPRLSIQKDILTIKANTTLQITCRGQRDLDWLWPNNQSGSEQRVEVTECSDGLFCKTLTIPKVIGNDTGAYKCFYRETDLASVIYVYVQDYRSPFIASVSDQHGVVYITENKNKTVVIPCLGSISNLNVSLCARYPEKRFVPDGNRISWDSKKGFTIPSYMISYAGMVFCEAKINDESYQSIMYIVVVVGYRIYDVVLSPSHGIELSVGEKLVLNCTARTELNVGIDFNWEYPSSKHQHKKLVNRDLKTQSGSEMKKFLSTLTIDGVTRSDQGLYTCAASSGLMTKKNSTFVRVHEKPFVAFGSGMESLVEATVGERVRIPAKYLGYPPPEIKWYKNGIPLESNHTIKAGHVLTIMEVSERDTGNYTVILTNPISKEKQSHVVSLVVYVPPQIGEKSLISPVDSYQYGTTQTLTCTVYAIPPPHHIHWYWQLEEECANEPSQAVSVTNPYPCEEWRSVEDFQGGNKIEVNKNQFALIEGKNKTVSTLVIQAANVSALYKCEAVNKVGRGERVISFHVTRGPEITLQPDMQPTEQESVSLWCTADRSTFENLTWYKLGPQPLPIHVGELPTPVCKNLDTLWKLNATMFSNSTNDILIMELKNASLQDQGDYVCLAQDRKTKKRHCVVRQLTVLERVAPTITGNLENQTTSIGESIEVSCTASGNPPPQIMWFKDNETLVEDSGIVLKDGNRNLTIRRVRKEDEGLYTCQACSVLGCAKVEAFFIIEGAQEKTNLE
Protocol: as §1, §2

[4] = system: vascular endothelial cells; experiment: ELISA test of binding to fixed vascular endothelial cells; conditions: for binding to endothelial cells (in words): ELISA; for ELISA (OD492 nm), EC: glutaraldehyde-fixed vascular endothelial cells, DHFR-specific monoclonal antibody
Protocol: as §1, §2

[5] = target: T3, soluble receptor of VEGF, Flt-1 (sFlt-1) (Homo sapiens, UniProt P17948); experiment: 125I-VEGF competitive binding assay on coated sFlt-1; conditions: 1, 5, 10, 15, 20 μg/ml; 125I-VEGF 2 μg/L; FIG. 1
T3 construct: coated overnight at 4° C. by 0.5 mg/L soluble receptor of VEGF, Flt-1 (sFlt-1)
T3 sequence (P17948 27-758 limits assumed, species assumed): as the sequence (P17948 27-758 limits assumed, species assumed) above
Protocol: In order to detect the activity of DHFR-F56 blocking VEGF binding to sFlt-1, a binding assay was carried out using ^125I-VEGF (purchased from Life Technology Inc.).
The experiment was carried out according to a method substantially as described by Tanaka, K., et al (Characterization of the extracellular domain in vascular endothelial growth factor receptor-1 (Flt-1 tyrosine kinase). Jpn J Cancer Res. 1997, 88:867-876). Briefly, a 96-well plate was coated overnight at 4° C. by 0.5 mg/L soluble receptor of VEGF, Flt-1 (sFlt-1). The coating solution was 0.01 mol/L phosphate buffer (pH 6.2). Then, the plate was rinsed with a washing solution (0.9% NaCl, 0.01 mol/L, pH6.2) for 3 times. 250 μl blocking buffer (0.3% BSA, 25 mmol/L HEPES, DMEM, pH7.6) was added into each well for 3 hours at room temperature. DHFR-F56 of different concentrations (1, 5, 10, 15, 20 μg/ml) (DHFR of different concentrations for the control group) and ^125I-VEGF (purchased from Life Technology Inc.) of fixed concentration (2 μg/L, […]) were added to the wells. 2 parallel wells were used for each concentration. The binding reaction underwent for 1 hour at room temperature. The plate was rinsed 4 times with the binding buffer. […] The cpm value was determined by a Wallac co liquid-scintillation counter after the solid residue had been dissolved.

[6] = system: MGC803 cells (a human gastric carcinoma cell line); experiment: Tumor inhibition test, MGC803 implanted in Balb/c nude mice; assay type: in vivo; conditions: 150 μg/100 μl intraperitoneally every other day for 10 times; for growth of human gastric carcinoma MGC803 cells in Balb/c nude mice: p<0.05 vs DHFR control
Protocol: To testify whether DHFR-F56 and DHFR-F90 can inhibit tumor growth on the basis of anti-angiogenesis, a tumor inhibition test on Balb/c nude mice was performed.
MGC803 cells (a human gastric carcinoma cell line) was subcutaneously implanted on the right buttock of eight 5-week aged nude mice (purchased from the Animal Center of the Chinese Academy of Medical Sciences) (2×10^6 cells/0.1 ml/each mouse). On the fifth day after the implantation, the nude mice were grouped at random into […] each of which included 4 mice. DHFR (150 μg/100 μl per time), DHFR-F56 or DHFR-F90 (150 μg/100 μl per time) was injected intraperitoneally every other day for 10 times. […] The major and minor axes of the tumors were measured by vernier caliper every three days during the observation period. The volume of the tumor was calculated according to the formula of ½×major axis×minor axis^2. After the 30 days, the nude mice were put to dead by neck-breaking. The tumors were weighted and analyzed statistically.

[7] = on filter membrane, twice daily for 2 days, FIG. 3
[8] = 0.5 mmol/L 60 μl topically, 10 times
[9] = lung, 0.5 mmol/L 60 μl topically, 10 times, after 8 weeks

Molecule: VEGF [reference compound]
effect on chick chorioallantoic membrane blood vessels ([1]; in vivo): can promote the proliferation; also recorded: stimulated the blood vessels to proliferate significantly

Molecule: H2N-Trp-His-Ser-Asp-Met-Glu-Trp-Trp-Tyr-Leu-Leu-Gly-COOH (H-WHSDMEWWYLLG-OH) [Peptide F56]
inhibition to the proliferation of umbilical cord vein-derived endothelial cells [2]: no significant inhibition
effect on chick chorioallantoic membrane blood vessels [1, 7]: rupture of blood vessels and bleeding in addition to blood vessel atrophy; also recorded: derangeable in distribution and atrophic
cancer metastasis to lung (in words) [3, 8]: significantly inhibit cancer metastasis to lung
tumor growth on the injection sites (in words) [3, 8]: inhibition of tumor growth on the injection sites
Number of metastatic foci in each mouse, mouse 1 [3, 9]: 0
Number of metastatic foci in each mouse, mouse 2 [3, 9]: 0
Number of metastatic foci in each mouse, mouse 3 [3, 9]: 1
Number of metastatic foci in each mouse, mouse 4 [3, 9]: 2
Number of metastatic foci in each mouse, mouse 5 [3, 9]: 2
Mean number of metastatic foci ([3]; lung, 5 mice, after 8 weeks): 1.0
Total number of metastatic foci ([3]; lung, 5 mice, after 8 weeks): 5
Metastasis inhibition (%) ([3]; lung, versus solvent, after 8 weeks): 70.5%

Molecule: H2N-Trp-His-Asp-Pro-Thr-Pro-Trp-Trp-Ser-Trp-Glu-Ile-COOH (H-WHDPTPWWSWEI-OH) [Peptide F90]
inhibition to the proliferation of umbilical cord vein-derived endothelial cells [2]: no significant inhibition
effect on chick chorioallantoic membrane blood vessels [1, 7]: derangeable in distribution and atrophic

binding to Flt-1 (in words) (sFlt-1): no reaction
ELISA (OD492 nm), SFlt-1 (sFlt-1): 0.088
reaction with KDR (in words) (sKDR): no reaction
ELISA (OD492 nm), SKDR (sKDR): 0.074
binding of 125I-VEGF to coated sFlt-1 [5]: no notable effect
B1: dihydrofolate reductase (protein)
chain: MVRPLNCIVAVSQNMGIGKNGDLPWPPLRNEFKYFQRMTTTSSVEGKQNLVIMGRKTWFSIPEKNRPLKDRINIVLSRELKEPPRGAHFLAKSLDDALRLIEQPELASKVDMVWIVGGSSVYQEAMNQPGHLRLFVTRIMQEFESDTFFPEIDLGKYKLLPEYPGVLSEVQEEKGIKYKFEVYEKK
notes: dihydrofolate reductase, negative control protein
binding to endothelial cells (in words) [4]: no reaction
ELISA (OD492 nm), EC [4]: 0.080
effect on chick chorioallantoic membrane blood vessels [1, 7]: no notable effect

binding to Flt-1 (in words) (sFlt-1): can bind
ELISA (OD492 nm), SFlt-1 (sFlt-1): 0.529
reaction with KDR (in words) (sKDR): no notable reaction
ELISA (OD492 nm), SKDR (sKDR): 0.081
B2: DHFR-F56: fusion protein composed of peptide F56 and dihydrofolate reductase, expressed in E. coli M15 (protein)
chain: MVRPLNCIVAVSQNMGIGKNGDLPWPPLRNEFKYFQRMTTTSSVEGKQNLVIMGRKTWFSIPEKNRPLKDRINIVLSRELKEPPRGAHFLAKSLDDALRLIEQPELASKVDMVWIVGGSSVYQEAMNQPGHLRLFVTRIMQEFESDTFFPEIDLGKYKLLPEYPGVLSEVQEEKGIKYKFEVYEKKWHSDMEWWYLLG
binding to endothelial cells (in words) [4]: can bind
ELISA (OD492 nm), EC [4]: 0.477
binding of 125I-VEGF to coated sFlt-1 [5]: decreases along with the increase of the concentration of DHFR-F56
necrosis of tumor ([6]; FIG. 4): result in necrosis of tumor
growth of human gastric carcinoma MGC803 cells in Balb/c nude mice [6]: can inhibit the growth

binding to Flt-1 (in words) (sFlt-1): can bind
ELISA (OD492 nm), SFlt-1 (sFlt-1): 0.415
reaction with KDR (in words) (sKDR): no notable reaction
ELISA (OD492 nm), SKDR (sKDR): 0.074
B3: DHFR-F90: fusion protein composed of peptide F90 and dihydrofolate reductase, expressed in E. coli M15 (protein)
chain: B2 chain with S189D, D190P, M191T, E192P, Y195S, L196W, L197E, G198I
binding to endothelial cells (in words) [4]: can bind
ELISA (OD492 nm), EC [4]: 0.384
growth of human gastric carcinoma MGC803 cells in Balb/c nude mice [6]: can inhibit the growth

— patent publication US7250395B2, “Antagonist peptides to VEGF receptor Flt-1” (Beijing Institute for Cancer Research, priority 2001, dated 2007)
